Measured values as given in publication PMC6133441, “Characterization of neutralizing antibodies reacting with the 213-224 amino-acid segment of human galectin-9” (PLoS ONE, 2018).

T1: peptide 12 (Homo sapiens, UniProt O00182)
T1 construct: 15-mer of human gal-9, twelfth of 15 overlapping peptides spanning aa 202-230 (gal-9L coordinates) with a shift of one aa; limits worked out from peptide 1 = 202-216; they are counted from the set
T1 chain: IPPMMYPHPAYPMPF

T2: peptide 13 (Homo sapiens, UniProt O00182)
T2 construct: 15-mer of human gal-9, thirteenth of 15 overlapping peptides spanning aa 202-230 (gal-9L coordinates) with a shift of one aa; limits worked out from peptide 1 = 202-216; they are counted from the set
T2 chain: PPMMYPHPAYPMPFI


Assays:
[1] = biological target: human recombinant galectin-9, short isoform (gal-9S) (Homo sapiens, UniProt O00182-3, strain, biotin in the direct ELISA (sites not given); unlabelled in the cell assays); assay: cell-based or functional assay
human galectin-1 = biological target: T3, human galectin-1 (Homo sapiens, UniProt P09382, biotin (sites not given)); assay: ELISA; direct ELISA: antibodies coated in a 96-well plate; biotinylated galectins at 1 nM, detected by streptavidin-HRP; for gal-9S also 1h at 37°C with or without lactose 20 mM (S1 Fig); settings: both partners purified
T3 construct: human galectin-1, recombinant; also called h-Gal 1; source: recombinant

human galectin-2 = biological target: T4, human galectin-2 (Homo sapiens, UniProt P05162, biotin (sites not given)); assay: as above; settings: both partners purified
T4 construct: human galectin-2, recombinant; also called h-Gal 2; source: recombinant

human galectin-4 = biological target: T5, human galectin-4 (Homo sapiens, UniProt P56470, biotin (sites not given)); assay: as above; settings: both partners purified
T5 construct: human galectin-4, recombinant; also called h-Gal 4; source: recombinant

human galectin-7 = biological target: T6, human galectin-7 (Homo sapiens, UniProt P47929, biotin (sites not given)); assay: as above; settings: both partners purified
T6 construct: human galectin-7, recombinant; also called h-Gal 7; source: recombinant

human galectin-8 = biological target: T7, human galectin-8 (Homo sapiens, UniProt O00214, biotin (sites not given)); assay: as above; settings: both partners purified
T7 construct: human galectin-8, recombinant; also called h-Gal 8; source: recombinant

human galectin-10 = biological target: T8, human galectin-10 (Homo sapiens, UniProt Q05315, biotin (sites not given)); assay: as above; settings: both partners purified
T8 construct: human galectin-10, recombinant; also called h-Gal 10; source: recombinant

peptide 12 = biological target: T1, peptide 12; assay: ELISA; competition: Gal-Nab1 (0.06 μg/mL) or Gal-Nab2 (0.3 μg/mL) pre-incubated with each 15-mer peptide (0.0001 to 10 μg/mL), then added to plates coated with gal-9; HRP-conjugated anti-mouse antibodies; percent inhibition; settings: both partners purified
peptide 13 = biological target: T2, peptide 13; assay: as above; settings: both partners purified
[2] = biological target: T9, CTB oligopeptide containing the amino-acids 208 to 232 of gal-9L (Homo sapiens, biotin at the C-terminus: K(biotin)-OH); assay: SPR; Biacore T200; biotinylated CTB or scramble oligopeptide on a streptavidin (SA) chip; Gal-Nab1 and Gal-Nab2 as analytes, 0.05 to 3.2 nM, 40 μL/min, 700 s, PBS with albumin 0.1 mg/mL and tween 0.05%; dissociation 800 s; apparent affinities (avidity); set-up: t1/2: unit not given here; settings: both partners purified
T9 construct: stuffer aa not related to gal-9, designed to increase solubility and accessibility; stuffer aa not related to gal-9; the last lysine carries the biotin; 32-mer; also called CTB-gal-9 peptide; CTB peptide
T9 sequence (chain, as listed by the source): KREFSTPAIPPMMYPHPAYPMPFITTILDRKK

human recombinant galectin-9, short isoform (gal-9S), sequence (O00182 whole entry, looked up, stated change not applied, canonical isoform): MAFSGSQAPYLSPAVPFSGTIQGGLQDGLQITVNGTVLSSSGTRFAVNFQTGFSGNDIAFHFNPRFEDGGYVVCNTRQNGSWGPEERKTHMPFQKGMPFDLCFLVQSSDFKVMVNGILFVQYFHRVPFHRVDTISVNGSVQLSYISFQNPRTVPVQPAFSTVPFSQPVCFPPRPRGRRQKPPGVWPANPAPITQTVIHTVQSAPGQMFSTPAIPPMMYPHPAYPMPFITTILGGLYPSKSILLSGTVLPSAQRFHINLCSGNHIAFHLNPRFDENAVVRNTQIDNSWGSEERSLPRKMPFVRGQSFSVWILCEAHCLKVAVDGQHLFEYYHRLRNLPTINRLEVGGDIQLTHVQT
T6 sequence (P47929 whole entry): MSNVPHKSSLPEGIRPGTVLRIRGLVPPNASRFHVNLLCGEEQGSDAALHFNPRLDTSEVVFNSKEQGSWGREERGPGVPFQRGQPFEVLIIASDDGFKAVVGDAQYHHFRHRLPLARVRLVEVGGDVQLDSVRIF
T7 sequence (O00214 whole entry): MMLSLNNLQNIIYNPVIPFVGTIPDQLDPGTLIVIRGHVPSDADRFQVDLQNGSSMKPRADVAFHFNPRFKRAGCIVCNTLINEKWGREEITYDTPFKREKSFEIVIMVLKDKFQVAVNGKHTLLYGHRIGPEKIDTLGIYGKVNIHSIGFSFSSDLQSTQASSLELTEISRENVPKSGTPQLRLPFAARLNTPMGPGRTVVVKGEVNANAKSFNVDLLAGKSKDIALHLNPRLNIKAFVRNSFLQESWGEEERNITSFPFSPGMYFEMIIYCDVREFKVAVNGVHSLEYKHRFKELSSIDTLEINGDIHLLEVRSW
T3 sequence (P09382 whole entry): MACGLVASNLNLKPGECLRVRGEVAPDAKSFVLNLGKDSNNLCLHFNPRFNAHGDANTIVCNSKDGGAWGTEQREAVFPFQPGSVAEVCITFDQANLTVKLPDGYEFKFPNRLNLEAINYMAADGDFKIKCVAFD
T5 sequence (P56470 whole entry): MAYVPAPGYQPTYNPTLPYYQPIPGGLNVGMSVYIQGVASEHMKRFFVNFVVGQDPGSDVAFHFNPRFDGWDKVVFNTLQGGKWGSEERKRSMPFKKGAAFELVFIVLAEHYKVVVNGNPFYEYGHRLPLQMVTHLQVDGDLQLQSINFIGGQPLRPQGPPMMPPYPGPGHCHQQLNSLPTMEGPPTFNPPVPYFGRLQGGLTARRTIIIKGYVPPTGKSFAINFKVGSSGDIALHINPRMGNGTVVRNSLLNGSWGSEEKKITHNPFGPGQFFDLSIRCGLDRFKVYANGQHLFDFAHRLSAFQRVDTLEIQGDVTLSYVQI
T4 sequence (P05162 whole entry): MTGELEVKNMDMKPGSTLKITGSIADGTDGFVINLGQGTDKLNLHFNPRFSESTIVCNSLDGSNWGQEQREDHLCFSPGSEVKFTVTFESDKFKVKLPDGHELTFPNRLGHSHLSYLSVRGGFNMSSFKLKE
T8 sequence (Q05315 whole entry): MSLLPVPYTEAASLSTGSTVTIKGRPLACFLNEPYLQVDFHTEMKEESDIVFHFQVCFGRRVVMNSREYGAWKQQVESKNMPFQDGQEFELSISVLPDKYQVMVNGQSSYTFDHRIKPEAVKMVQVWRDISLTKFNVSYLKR

Binder | EC50 of prevention of gal-9-induced apoptotic death (annexin-V+ PI+) of activated primary CD3+ T cells; gal-9S 40 nM, 36 h, antibody 0.3 to 100 nM [1] [nM] | EC50 of reduction of gal-9-induced non-lethal PS translocation (annexin-V+ PI-) in activated primary CD3+ T cells; gal-9S 40 nM, 36 h, antibody 0.3 to 100 nM [1] [nM] | binding result (human galectin-1) | binding result (human galectin-2) | binding result (human galectin-4) | binding result (human galectin-7) | binding result (human galectin-8) | binding result (human galectin-10) | binding result (peptide 12) | binding result (peptide 13) | Kd [2] [nM] | koff [2] [s⁻¹] | kon [2] [M⁻¹ s⁻¹] | t1/2 [2]
Gal-Nab1 (antibody, V domains shown, heavy chain CDR1; heavy chain CDR2; heavy chain CDR3; mouse IgG1 heavy chain constant region (isotype IgG1, kappa as stated); light chain CDR1; light chain CDR2; light chain CDR3; mouse kappa light chain constant region (isotype IgG1, kappa as stated); Mouse IgG1, kappa; Raised against the C-terminal part of human gal-9 (residues 191 to 355 of gal-9L); also called anti-gal-9 mAb) VH: KVQLQQSGAELVKPGASVKLSCKASGYTFTDYTIHWVKQRSGQGLEWIGWFYPGSHSIKYNEQFKDRATLTADKSSSTVYMELSRLTSEDSAVYFCTRHGGYDGFDYWGQGTTLTVSS VL: DIVMSQSPSSLAVSVGEKITMSCKSSQSLFYSTNQKNYLAWYQQKPGQSPKLLIYWASTRESGVPDRFTGSGSGTDFTLTISSVKAEDLAVYYCQQYYYFPYTFGGGTKLEIK | 10 | 50 | no binding (tested: 1 nM) | no binding (tested: 1 nM) | no binding (tested: 1 nM) | no binding (tested: 1 nM) | no binding (tested: 1 nM) | no binding (tested: 1 nM) | binds | binds | 0.01 | 2.3e-05 | 2.3e+06 | 8.37
Gal-Nab2 (antibody, V domains shown, heavy chain CDR1; that of Gal-Nab1 has 17); heavy chain CDR3; mouse IgG1 heavy chain constant region (isotype IgG1, kappa as stated); light chain CDR1; light chain CDR2; light chain CDR3; mouse kappa light chain constant region (isotype IgG1, kappa as stated); Mouse IgG1, kappa; Raised against the C-terminal part of human gal-9 (residues 191 to 355 of gal-9L); also called anti-gal-9 mAb) VH: KVQLQQSGAELVKPGASVKLSCKASGYTFTEYTIHWVKQRSGQGLEWIGWFYPGSGSMEYNEKFDKATLTADNSSSTVYMELSRLTSEDSAVYFCERHGGYDGFDYWGQGTTLTVSS VL: DIVMSQSPSSLAVSVGEKVTMSCKSSQSLLYSNNQKNYLAWYQQKPGQSPKLLIYWASTRGSGVPDRFTGSGSGTDFTLTISSVKAEDLAIYYCQQYYSYPFTFGGGTKLEIK | 25 | – | no binding (tested: 1 nM) | no binding (tested: 1 nM) | no binding (tested: 1 nM) | no binding (tested: 1 nM) | no binding (tested: 1 nM) | no binding (tested: 1 nM) | binds | – | – | – | – | –
